{
  "source": "patent US11541128B2",
  "about": "“Multi-drug antibody drug conjugates” (Seagen Inc., priority 2016, dated 2023)",
  "key": {"CD30(−) U-266 cells": {"test_system": "CD30(−) U-266 cells", "test": "Binding to CD30(−) cells", "conditions": "CD30(−) U-266 cells (not shown)"}, "[1]": {"test_system": "MCF-7 breast carcinoma cells", "test": "Colony forming assay, MCF-7", "format": "cell-based", "conditions": "ADC 100 ng/mL for 48 hours, recovery 7-9 days, N=2", "description": "This analysis was conducted on either JHH-7 (hepatocarcinoma cells) or MCF-7 (LIV-1positive) cells using antigen specific dual-auristatin ADCs. […] A dual-auristatin ADC targeting the LIV-1antigen on MCF-7 cells also allowed for less outgrowth of resistant colonies compared to single-drug ADCs.\nFor testing of LIV-1 targeted ADCs, MCF-7 breast carcinoma cells (ATCC) were plated in 6-well tissue culture plates at a density of 10,000 cells per well. ADCs were added to cells at a concentration of 100 ng/mL for 48 hours. At this time, media was removed and cells were washed with PBS. Fresh media was added and the cells allowed to recover for 7-9 days. Cells were then washed with PBS, fixed with 3.7% paraformaldehyde, stained with 0.5% crystal violet, and then counted. Each condition was conducted with N=2."}, "Granta-519": {"test_system": "Granta-519", "test": "In vitro cytotoxicity, Granta-519", "format": "cell-based", "conditions": "co-administration IC50 vs co-conjugate IC50"}, "SU-DHL-16": {"test_system": "SU-DHL-16", "test": "In vitro cytotoxicity, SU-DHL-16", "format": "cell-based", "conditions": "co-administration IC50 vs co-conjugate IC50"}, "WSU-DLCL2": {"test_system": "WSU-DLCL2", "test": "In vitro cytotoxicity, WSU-DLCL2", "format": "cell-based", "conditions": "hBU12 conjugates targeting CD19"}, "Raji": {"test_system": "Raji", "test": "In vitro cytotoxicity, Raji", "format": "cell-based", "conditions": "hBU12 conjugates targeting CD19"}, "RL": {"test_system": "RL", "test": "In vitro cytotoxicity, RL", "format": "cell-based", "conditions": "hBU12 conjugates targeting CD19"}, "Nalm-6": {"test_system": "Nalm-6", "test": "In vitro cytotoxicity, Nalm-6", "format": "cell-based", "conditions": "hBU12 conjugates targeting CD19"}},
  "data": [
    {"molecule": "cAC10: Chimeric anti-CD30 monoclonal antibody, naked antibody", "values": [
      {"measurement": "binding to CD30(−) U-266 cells", "setting": "CD30(−) U-266 cells", "result": "Neither cAC10 or cAC10-4-(3-1) bound"}
    ]},
    {"molecule": "hLIV22-Linking Assembly Unit Aa (8)-MMAE (16) (conjugate, chains of the INN, looked up, Linking Assembly Unit Aa-MMAE conjugate) VH: QVQLVQSGAEVKKPGASVKVSCKASGLTIEDYYMHWVRQAPGQGLEWMGWIDPENGDTEYGPKFQGRVTMTRDTSINTAYMELSRLRSDDTAVYYCAVHNAHYGTWFAYWGQGTLVTVSS VL: DVVMTQSPLSLPVTLGQPASISCRSSQSLLHSSGNTYLEWYQQRPGQSPRPLIYKISTRFSGVPDRFSGSGSGTDFTLKISRVEAEDVGVYYCFQGSHVPYTFGGGTKVEIK", "values": [
      {"measurement": "Colony forming units", "setting": "[1]", "result": 42.5}
    ]},
    {"molecule": "hLIV22-Linking Assembly Unit Aa (8)-Comp. Aa (8)-MMAE (8) (conjugate, chains of the INN, looked up, Linking Assembly Unit Aa, Compound Aa, MMAE conjugate) VH: QVQLVQSGAEVKKPGASVKVSCKASGLTIEDYYMHWVRQAPGQGLEWMGWIDPENGDTEYGPKFQGRVTMTRDTSINTAYMELSRLRSDDTAVYYCAVHNAHYGTWFAYWGQGTLVTVSS VL: DVVMTQSPLSLPVTLGQPASISCRSSQSLLHSSGNTYLEWYQQRPGQSPRPLIYKISTRFSGVPDRFSGSGSGTDFTLKISRVEAEDVGVYYCFQGSHVPYTFGGGTKVEIK", "values": [
      {"measurement": "Colony forming units", "setting": "[1]", "result": 19.5}
    ]},
    {"molecule": "hBU12 Co-Conjugate (conjugate, chains of the INN, looked up, co-conjugate with two drug payloads) VH: QVQLQESGPGLVKPSQTLSLTCTVSGGSISTSGMGVGWIRQHPGKGLEWIGHIWWDDDKRYNPALKSRVTISVDTSKNQFSLKLSSVTAADTAVYYCARMELWSYYFDYWGQGTLVTVSS VL: EIVLTQSPATLSLSPGERATLSCSASSSVSYMHWYQQKPGQAPRLLIYDTSKLASGIPARFSGSGSGTDFTLTISSLEPEDVAVYYCFQGSVYPFTFGQGTKLEIK", "values": [
      {"measurement": "Fold difference", "setting": "Granta-519", "result": 41.5},
      {"measurement": "Fold difference", "setting": "SU-DHL-16", "result": 2.5}
    ]},
    {"molecule": "hBU12-Linking Assembly Unit Aa-Comp. Aa (16) (conjugate, chains of the INN, looked up, Linking Assembly Unit Aa-Compound Aa drug conjugate) VH: QVQLQESGPGLVKPSQTLSLTCTVSGGSISTSGMGVGWIRQHPGKGLEWIGHIWWDDDKRYNPALKSRVTISVDTSKNQFSLKLSSVTAADTAVYYCARMELWSYYFDYWGQGTLVTVSS VL: EIVLTQSPATLSLSPGERATLSCSASSSVSYMHWYQQKPGQAPRLLIYDTSKLASGIPARFSGSGSGTDFTLTISSLEPEDVAVYYCFQGSVYPFTFGQGTKLEIK", "values": [
      {"measurement": "IC50", "setting": "WSU-DLCL2", "result": 1.5, "unit": "ng/mL"},
      {"measurement": "IC50", "setting": "Raji", "result": 2.1, "unit": "ng/mL"}
    ]},
    {"molecule": "hBU12-Linking Assembly Unit Aa-Comp. Ab (16) (conjugate, chains of the INN, looked up, linker assembly with compound Ab) VH: QVQLQESGPGLVKPSQTLSLTCTVSGGSISTSGMGVGWIRQHPGKGLEWIGHIWWDDDKRYNPALKSRVTISVDTSKNQFSLKLSSVTAADTAVYYCARMELWSYYFDYWGQGTLVTVSS VL: EIVLTQSPATLSLSPGERATLSCSASSSVSYMHWYQQKPGQAPRLLIYDTSKLASGIPARFSGSGSGTDFTLTISSLEPEDVAVYYCFQGSVYPFTFGQGTKLEIK", "values": [
      {"measurement": "IC50", "setting": "WSU-DLCL2", "result": 8.6, "unit": "ng/mL"},
      {"measurement": "IC50", "setting": "Raji", "result": 6.9, "unit": "ng/mL"}
    ]},
    {"molecule": "hBU12-Linking Assembly Unit Aa-Comp. Ab (8) Comp. Aa (8) (conjugate, chains of the INN, looked up, linker assembly with compounds Ab and Aa) VH: QVQLQESGPGLVKPSQTLSLTCTVSGGSISTSGMGVGWIRQHPGKGLEWIGHIWWDDDKRYNPALKSRVTISVDTSKNQFSLKLSSVTAADTAVYYCARMELWSYYFDYWGQGTLVTVSS VL: EIVLTQSPATLSLSPGERATLSCSASSSVSYMHWYQQKPGQAPRLLIYDTSKLASGIPARFSGSGSGTDFTLTISSLEPEDVAVYYCFQGSVYPFTFGQGTKLEIK", "values": [
      {"measurement": "IC50", "setting": "RL", "result": 1, "unit": "ng/mL"},
      {"measurement": "IC50", "setting": "Nalm-6", "result": 2, "unit": "ng/mL"},
      {"measurement": "IC50", "setting": "Raji", "result": 1.6, "unit": "ng/mL"}
    ]},
    {"molecule": "hBU12-Linking Assembly Unit Aa-Comp. Aa (8)-Comp. Ah (8) (conjugate, chains of the INN, looked up, linker assembly with compounds Aa and Ah) VH: QVQLQESGPGLVKPSQTLSLTCTVSGGSISTSGMGVGWIRQHPGKGLEWIGHIWWDDDKRYNPALKSRVTISVDTSKNQFSLKLSSVTAADTAVYYCARMELWSYYFDYWGQGTLVTVSS VL: EIVLTQSPATLSLSPGERATLSCSASSSVSYMHWYQQKPGQAPRLLIYDTSKLASGIPARFSGSGSGTDFTLTISSLEPEDVAVYYCFQGSVYPFTFGQGTKLEIK", "values": [
      {"measurement": "IC50", "setting": "RL", "result": 2, "unit": "ng/mL"},
      {"measurement": "IC50", "setting": "WSU-DLCL2", "result": 2, "unit": "ng/mL"},
      {"measurement": "IC50", "setting": "Raji", "result": 5, "unit": "ng/mL"}
    ]},
    {"molecule": "hBU12-Linking Assembly Unit Aa-Comp. Ab (8) (conjugate, chains of the INN, looked up, linker assembly with compound Ab) VH: QVQLQESGPGLVKPSQTLSLTCTVSGGSISTSGMGVGWIRQHPGKGLEWIGHIWWDDDKRYNPALKSRVTISVDTSKNQFSLKLSSVTAADTAVYYCARMELWSYYFDYWGQGTLVTVSS VL: EIVLTQSPATLSLSPGERATLSCSASSSVSYMHWYQQKPGQAPRLLIYDTSKLASGIPARFSGSGSGTDFTLTISSLEPEDVAVYYCFQGSVYPFTFGQGTKLEIK", "values": [
      {"measurement": "IC50", "setting": "RL", "result": 340, "unit": "ng/mL"},
      {"measurement": "IC50", "setting": "Nalm-6", "result": 5, "unit": "ng/mL"}
    ]},
    {"molecule": "hBU12-Linking Assembly Unit Aa-Comp. Ah (8) (conjugate, chains of the INN, looked up, linker assembly with compound Ah) VH: QVQLQESGPGLVKPSQTLSLTCTVSGGSISTSGMGVGWIRQHPGKGLEWIGHIWWDDDKRYNPALKSRVTISVDTSKNQFSLKLSSVTAADTAVYYCARMELWSYYFDYWGQGTLVTVSS VL: EIVLTQSPATLSLSPGERATLSCSASSSVSYMHWYQQKPGQAPRLLIYDTSKLASGIPARFSGSGSGTDFTLTISSLEPEDVAVYYCFQGSVYPFTFGQGTKLEIK", "values": [
      {"measurement": "IC50", "setting": "RL", "result": 60, "unit": "ng/mL"},
      {"measurement": "IC50", "setting": "WSU-DLCL2", "result": 7, "unit": "ng/mL"},
      {"measurement": "IC50", "setting": "Nalm-6", "result": 9, "unit": "ng/mL"},
      {"measurement": "IC50", "setting": "Raji", "result": 97, "unit": "ng/mL"}
    ]},
    {"molecule": "hBU12-Linking Assembly Unit Aa-Comp. Aa (8) (conjugate, chains of the INN, looked up, linker assembly with compound Aa) VH: QVQLQESGPGLVKPSQTLSLTCTVSGGSISTSGMGVGWIRQHPGKGLEWIGHIWWDDDKRYNPALKSRVTISVDTSKNQFSLKLSSVTAADTAVYYCARMELWSYYFDYWGQGTLVTVSS VL: EIVLTQSPATLSLSPGERATLSCSASSSVSYMHWYQQKPGQAPRLLIYDTSKLASGIPARFSGSGSGTDFTLTISSLEPEDVAVYYCFQGSVYPFTFGQGTKLEIK", "values": [
      {"measurement": "IC50", "setting": "RL", "result": 4, "unit": "ng/mL"},
      {"measurement": "IC50", "setting": "Nalm-6", "result": 8, "unit": "ng/mL"}
    ]}
  ]
}
